Results reported in patent publication US20220153852A1 (IBIO, published 2022).
Residue numbers refer to the chain shown, from its start.

B1: hD11-H3-L2 (hD11-H3h-L2) (antibody, V domains shown)
VH: QVQLVQSGAEVKKPGASLKISCKGSGYTFTDYAMHWVRQAPGQGLEWIGVISTYSGDAIYAQKFQGRATMTVDTSTSTAYLELSSLRSEDTAVYYCARGVTFDYWGQGTTVTVSS
VL: DIQMTQSPSSLSASVGDRVTITCRASQDISNYLEWYQQKPGKAPKLLVYNAKTLAEGVPSRFSGSGSGTDFTLTISSLQPEDFGTYYCQHHYDTPYTFGQGTKLEIK
B2: hD11-H2-L1 (antibody, V domains shown)
VH: B1 VH with L18V, I20V, I48M, A68V, L81M
VL: B1 VL with V48I, G84A
B3: hD11-H2-L2 (antibody, V domains shown)
VH: B1 VH with L18V, I20V, I48M, A68V, L81M
VL: B1 VL
B4: hD11-H3b-L2 (antibody, V domains shown)
VH: B1 VH with T74K
VL: B1 VL
B5: hD11-H1-L2 (antibody, V domains shown)
VH: B1 VH with L18V, I20V, G24A, I48M, A68V, V72R, A79V, L81M
VL: B1 VL
notes: Humanized variant of D11 (parental clone carries human IgG1)
B6: hD11-H2b-L2 (antibody, V domains shown)
VH: B1 VH with L18V, I20V, I48M, A68V, T74K, L81M
VL: B1 VL
B7: hD11-H1-L1 (antibody, V domains shown)
VH: B1 VH with L18V, I20V, G24A, I48M, A68V, V72R, A79V, L81M
VL: B1 VL with V48I, G84A
B8: hD11-H2b-L1 (antibody, V domains shown)
VH: B1 VH with L18V, I20V, I48M, A68V, T74K, L81M
VL: B1 VL with V48I, G84A
B9: hD11-H3b-L1 (antibody, V domains shown)
VH: B1 VH with T74K
VL: B1 VL with V48I, G84A
B10: hD11-H3-L1 (hD11-H3h-L1) (antibody, V domains shown)
VH: B1 VH
VL: B1 VL with V48I, G84A
B11: D11 (original or parental) (antibody, V domains shown)
VH: QIQLQQPGAELVRPGVSLKISCKGSGYTFTDYAMHWVRQSHAKSLEWIGVISTYSGDAIYNQKFKGKATMTVDKSSSTAYLELARLTSDDSAIYYCARGVTFDYWGQGTTVTVSS
VL: DIQMTQTTSSLSASLGDRVTITCRASQDISNYLEWYQQKQGKSPQLLVYNAKTLAEGVPSRFSGSGSGTQFSLKINSLQPEDFGSYYCQHHYDTPYTFGGGTKLEIK
notes: also called parental D11; original D11
B12: 7G7B6 (antibody, V domains shown)
VH: EVQLVESGGDLVQPRGSLKLSCAASGFTFSSYGMSWVRQTPDKRLELVATINGYGDTTYYPDSVKGRFTISRDNAKNTLYLQMSSLKSEDTAMYFCARDRDYGNSYYYALDYWGQGTSVTVSS
VL: QIVLSQSPAILSASPGERVTMTCRASSSVSFMHWLQQKPGSSPKPWIYATSNLASGVSARFSGSGSGTSYSLTITRVEAEDAATYYCQQWSSNPPAFGGGTKLEIK

Each binder was assayed against T1, CD25 on CD25-expressing human cells (SUDHL-1, SR786, regulatory T cells) (human, UniProt P01589 22-272) (assay: cell-based or functional assay).
T1 sequence (looked up): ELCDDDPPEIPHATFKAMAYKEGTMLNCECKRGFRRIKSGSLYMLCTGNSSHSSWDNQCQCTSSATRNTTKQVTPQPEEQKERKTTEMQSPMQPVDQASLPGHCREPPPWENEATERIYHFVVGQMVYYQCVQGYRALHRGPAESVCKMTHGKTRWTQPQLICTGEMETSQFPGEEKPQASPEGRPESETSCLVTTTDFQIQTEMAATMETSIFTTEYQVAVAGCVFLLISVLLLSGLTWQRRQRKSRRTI

In order of falling “Treg ADCC EC50” value:
1. B10  0.0683 µg/mL
2. B5  0.0467 µg/mL
3. B9  0.0317 µg/mL
4. B7  0.0206 µg/mL
5. B12  0.0194 µg/mL
6. B2  0.0178 µg/mL
7. B6  0.0145 µg/mL
8. B11  0.0135 µg/mL
9. B3  0.0133 µg/mL
10. B8  0.0089 µg/mL
11. B4  0.0077 µg/mL
12. B1  0.0048 µg/mL

The binders below were run against T2, human CD25 (ELISA antigen) (human, UniProt P01589 22-213, limits assumed) (assay: ELISA on human CD25, OD450, curve fit).
T2 construct: The ELISA protocol is described only for cyno CD25; the human antigen's construct is not described
T2 sequence (looked up): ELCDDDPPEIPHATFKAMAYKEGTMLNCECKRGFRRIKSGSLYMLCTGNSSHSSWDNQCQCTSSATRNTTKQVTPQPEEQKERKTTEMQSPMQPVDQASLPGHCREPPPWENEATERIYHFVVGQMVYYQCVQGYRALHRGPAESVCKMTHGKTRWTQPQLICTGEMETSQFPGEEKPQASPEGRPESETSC

In order of rising Top:
1. B5  3.1
2. B11  3.12
3. B12  3.12

These binders were tested against T3, recombinant cynomolgus monkey (cyno) CD25 (cynomolgus monkey, UniProt H6WS54 22-213) (assay: ELISA on coated cyno CD25, OD450, curve fit).
T3 sequence: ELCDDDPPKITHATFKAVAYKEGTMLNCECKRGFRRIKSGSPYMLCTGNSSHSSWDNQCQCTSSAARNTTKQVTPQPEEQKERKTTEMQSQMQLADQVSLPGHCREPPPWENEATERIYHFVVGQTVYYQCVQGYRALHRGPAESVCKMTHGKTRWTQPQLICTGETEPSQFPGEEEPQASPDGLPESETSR
Protocol: (§1) To test for binding to recombinant cynomolgus monkey (cyno) CD25, microtiter plates were coated with 80 ul of 1 ug/ml Cyno CD25 in 50 mM sodium carbonate pH 9.6) at 4° C. overnight. The next day, remove the protein from the wells and block with 200 ul PBS/0.1% BSA/0.05% tween20. The plate was incubated for 1 hour at room temperature. The antibodies starting at 25 nM and 3 fold serially were diluted in PBT buffer and added to the plate for incubation at RT for 1 hour. The plate was then washed and then 1:2500 dilution of HRP conjugate anti-Fab antibody was added. The plate was washed 5-10 times with PBS/tween20 to remove non-specific binders. TMB perxidase substrate and peroxidase solution were added and incubated for the time needed to develop with 80 uL of ELISA stop solution added at the end. OD measurements were then taken at […] using a plate reader (SpectraMax iD3 Plate Reader, Molecular Devices).
(§2) The ratio is indicative of a preference in binding to either cyno or human CD25.

In order of falling Top:
1. B5  3.04
2. B11  3.01
3. B12  2.96

Each binder was assayed against T3, recombinant cynomolgus monkey (cyno) … (assay: ratio of the ELISA IC50 on cyno CD25 to that on human CD25).
Protocol: as §1, §2

In order of falling Cyno/Human:
1. B5  42.4
2. B12  1.8
3. B11  1.3
